The values below come from the DeepSol protein solubility set.

The nature of this series: soluble on expression in E. coli; label from the status in PepcDB or PDB records.
Regarding “MAHHHHHHMMNTSLLGQDVDEIQSAVDRWYHQSSSNLQASHAAFTAQLRQLQERLGLDPGAPTLSAHVDAMITPPRHMYLSDDNNSGSPPMASPPISRGQLNYDHLLDEVINKGASMPPFNPEEEAERRRRPNAESVRAPSTPPEDCNGPCQVLVEFKRKRVLQYESPYYVAPGEHVVVGGDRGEDIGLVTHSWRDAEAHQLGENRDKGVGKVLRVASVLEVTQLQGVQTELETRAVEVAQEKVQESGLPMRIVDAEYQFDRRKLTFYYQSMHRLDFRTLVRDLYKTFRARIWMEPDTSS”, the “soluble on expression in E. coli” value was “soluble”.

With “EKKYIVGFKQTMSAMSSAKKKDVISQKGGKVEKQFKYVNAAAATLDEKAVKELKKDPSVAYVEEDHIAHEY”, the “soluble on expression in E. coli” value is “soluble”.

“MGGMDTGVTSPRVLVVDDDSDVLASLERGLRLSGFEVATAVDGAEALRSATENRPDAIVLDINMPVLDGVSVVTALRAMDNDVPVCVLSARSSVDDRVAGLEAGADDYLVKPFVLAELVARVKALLRRRGSTATSSSETITVGPLEVDIPGRRARVNGVDVDLTKREFDLLAVLAEHKTAVLSRAQLLELVWGYDFAADTNVVDVFIGYLRRKLEAGGGPRLLHTVRGVGFVLRMQ”: the “soluble on expression in E. coli” value was “soluble”.

Consider “MSLAWDEGKPRIITLTMNPALDITTSVDVVRPTEKMRCGAPRYDPGGGGINVARIVHVLGGCSTALFPAGGSTGSLLMALLGDAGVPFRVIPIAASTRESFTVNESRTAKQYRFVLPGPSLTVAEQEQCLDELRGAAASAAFVVASGSLPPGVAADYYQRVADICRRSSTPLILDTSGGGLQHISSGVFLLKASVRELRECVGSELLTEPEQLAAAHELIDRGRAEVVVVSLGSQGALLATRHASHRFSSIPMTAVSGVGAGDAMVAAITVGLSRGWSLIKSVRLGNAAGAAMLLTPGTAACNRDDVERFFELAAEPTEVGQDQYVWHPIVNPEASPEGHHHHHH”, for which the “soluble on expression in E. coli” value is “soluble”.

“MIVDTSVWIAYLSTSESLASRWLADRIAADSTVIVPEVVMMELLIGKTDEDTAALRRRLLQRFAIEPLAPVRDAEDAAAIHRRCRRGGDTVRSLIDCQVAAMALRIGVAVAHRDRDYEAIRTHCGLRTEPLF”: the “soluble on expression in E. coli” value is given as “not soluble”.

With “MSANFTDKNGRQSKGVLLLRTLAMPSDTNANGDIFGGWIMSQMDMGGAILAKEIAHGRVVTVAVESMNFIKPISVGDVVCCYGQCLKVGRSSIKIKVEVWVKKVASEPIGERYCVTDAVFTFVAVDNNGRSRTIPRENNQELEKALALISEQPL”, the “soluble on expression in E. coli” value was “soluble”.

With “MSECLMFGMDCEARCMTSMTADEENICFLVGTNNIKNDKNQVNKLFMDPEASRLMSKTFRHPAGEVRAIAAHPTKSTILATCTADFSSLGGTHSITIWNIEEDKRTLETVSRLPTEQVMSCLEWEPNSMKCAAMTPFRPEIQLLNMENGPEIVQNLKIPLENEEDEMFSATWSPHHDGNMLGVTGGRTAWCIDCRTDNEYLKIRDAHIHRTISMDFNPNLQHVIATCGDDGYVRIWDTRSTSSALTSLHPHAHWVWSVRFHPVHDQLLLTGGSDASVVLSCAQSVSSEQQIEFRDDEEEEEDDDLVEKLQDGQLERIDEHEDSVYACAWSSADPWTFASLSYDGRMIVSNVSRKHKYALMQL”, the “soluble on expression in E. coli” value was “not soluble”.

As for “SMVSPREKQQTNSKGSSNFCVKNIKQAEFGRREIEIAEQDMSALISLRKRAQGEKPLAGAKIVGCTHITAQTAVLIETLCALGAQCRWSACNIYSTQNEVAAALAEAGVAVFAWKGESEDDFWWCIDRCVNMDGWQANMILDDGGDLTHWVYKKYPNVFKKIRGIVEESVTGVHRLYQLSKAGKLCVPAMNVNDSVTKQKFDNLYCCRESILDGLKRTTDVMFGGKQVVVCGYGEVGKGCCAALKALGAIVYITEIDPICALQACMDGFRVVKLNEVIRQVDVVITCTGNKNVVTREHLDRMKNSCIVCNMGHSNTEIDVTSLRTPELTWERVRSQVDHVIWPDGKRVVLLAEGRLLNLSCSTVPTFVLSITATTQALALIELYNAPEGRYKQDVYLLPKKMDEYVASLHLPSFDAHLTELADDQAKYLGLNKNGPFKPNYYRY”, the “soluble on expression in E. coli” value is reported as “soluble”.

For “MGSDKIHHHHHHMHLSNSPNSHDPDAQARFWFARQQGQTLSEAEQQQLAEWLAANPLHQDAWRRVEEDWLAIDRYRHALNDELKKARRNRPGQHKAAFQLKRRAAAAALLVAVCIPVLYQGMTGTTTYWNTLKGEQQQITLAGGSTLNLDTATRITVTQNWFTHHVQLHEGEIYLETASSDWHTLRVSAEHYEIRDIGTRFSVRYIPDQFMVEVAEGTVEVKKQGQLVLLQAGEVLSIITGSNEWRLAALPAGDIAHWRKGLLVFNAHRLHDVLHEIARYHTVQFDLADSAIGEIQVSGRFKLDELDTNLQIIADTLKINIEHPAPGRYRLGALRQSTR”, the “soluble on expression in E. coli” value is on record as “not soluble”.

As to “MALNVIKISRVSLVTNSVEPLVLPLTFFDLLWLKLNPIERVTFYKLTESSRDSFFSSILPKLEQSLSLVLSHFLPLSGHLKWNPQDPKPHIVIFPKDTVSLTVVESEADFSYISSKELRLETELRPLVPELQVSSDSASLLSLQITLFPNQGFSIGTTVHHVVMDGKTASKFHKSWAHICKHGTTPQDFDLPTVLDRTVINVPAGLEQKIFQLSSYISEEKDYARTLTLPPAKEIDNDVVRVTLELTEVDIEKLKERAKNESTRSDLHLSTFVVSYAYVLTCMVKSCGGDANRPVRFMYAADFRNRLDPPVPLTYFGNCVLPIDFNGYKATTFLGKDGYVNGVEILSDSVRGLGSRNIESIWEVYEDGTKNMKLDTQNVTVTGSNQFGIYGSDFGWGRPVKTDVMSLYKNNEFSMSARRDEIGGLEIGISLKKCEMNVFLSLFTSDFDIYK”, the “soluble on expression in E. coli” value was “soluble”.

Regarding “MESSTDGQVVPQEVLNLPLEKYHEEADDYLDHLLDSLEELSEAHPDCIPDVELSHGVMTLEIPAFGTYVINKQPPNKQIWLASPLSGPNRFDLLNGEWVSLRNGTKLTDILTEEVEKAISKSQ”, the “soluble on expression in E. coli” value is recorded as “soluble”.

Regarding “MSLKITHVEVHRIDVPAASPPFRWRDGLSGSAPVGDGAVLHIGTDEGAEGVSVFARPGAYSTLRDLVDRVFRAELVGADPFQREWLWHRVWELDRIHELPLPTLGLIDIALWDLAGRYHGEPVWRLLGGFREAIPAYASTSTFSSVAEFLDVADQCLALGYRGIKLHAWGDARRDAELCLALRDHVGPDVPLMYDGSAGFDLPDAIRLGRALSEADYLWYEEPIREFSISAYQRLAEAVDVPLLVAETSDGAHMNAADFIRAGAATFGVRAGTTLRGGITGAMRTAHLADAFRLRAEVHGSDIPNHHLCMAISNTTYYESLVTSVNVVRERHVDDQGLVHAPAGPGIALPLDFGYGNELLPFVEQPREGHHHHHH”, the “soluble on expression in E. coli” value is “soluble”.

Regarding “MSLAPALKAEILAQALPYIRKFHGKTIVIKYGGNAMTEEKLKHGFARDVILLKLVGMNPVVVHGGGPQIDDALKKVGKTGTFIQGMRVTDEETMEVVEWVLGGEVQQDIVMLINQYGGQAVGLTGKDGGLIRAKKLKMPDREQPGQFIDIGFVGDIETINPAVVRALQDDAFIPVISPIGFSDDGQAYNINADVVAGKMAEILKAEKLVMMTNIPGVMDKQGNLLTDLSAREIDELFADGTISGGMLPKISSALDAAKSGVNSVHIIDGRIEHSLLLEILTEQAFGTMIRSHEGHHHHHH”, the “soluble on expression in E. coli” value is “not soluble”.

On to “DGQLTNLPGGIDEYLKRREALAAQNQSGVVNLGGNNEAASAPVPEKKLSSQEQREITKQMNALERKMGKLDPKIAKINEEMAAAAQRVDTAELTRLDAELNELTAQREGLEMEWMDLGERLES”, for which the “soluble on expression in E. coli” value is listed as “soluble”.

Take “MGSDKIHHHHHHMGKKHTSSYEVAYYDGDFTGAMKIPALLAVVIKVSEEQTELLGRDAAYVAQFGLGWVITNYEIEIHRLPKVGEKVAITTQAMSYNKYFCYRNFWVHDEEGKECVFVKSTFVLMDQKNRKISSVLPEIIAPFASAAITKIYRHEKIEKVTEGNFLPYRVRFFDIDGNQHVNNAIYFNWLLDVLGYDFLTTHQPKKILVKFDKEVEYGQEVESHYEIVEQENQLKTRHEIRIDGQTYCEANIDWTN”: the “soluble on expression in E. coli” value is on record as “not soluble”.

With “MTEKQFKLTVQDNTNIEVKVNFTDVDSKGIIHIFHGMAEHMERYDKLAHALSKHGFDVIRHNHRGHGINIDESTRGHYDDMKRVIGDAFEVAQTVRGNVDKPYIIIGHSMGSVIARLFVETYPQYVDGLILSGTGMYSLWKGLPTVKVLQLITKIYGAEKRVEWVNQLVSNSFNKKIRPLRTQSDWISSNPIEVDNFIKDPYSGFNVSNQLLYQTAYYMLHTSQLKNMKMLNHAMPILLVSGYDDPLGDYGKGILKLANIYRKAGIKNVKVNLYHHKRHEVLFEKDHDKIWEDLFKWLNQFYKK”, the “soluble on expression in E. coli” value was “not soluble”.

As to “MSLQQSPSTSRPQLGIGLIGTGFMGRAHALAFGSANAALELPARIHLAALADADSARAEQCAQAWGFDRSHADWQQLVEDPRVQIVAITTPNHLHFPMAMAAIAAGKAVYCEKPLAVSLAQADEMQRSAKAAGVVTQVGYNYQHNPMIGLAREMIEAGELGDIVSFQGEFSEDFMGSATSPWSWRCEAAHAGGALADLGSHLLAMARYLLGDIEAVCADANTVHSQRPASPGSNEMRAIAVDDQTHALLRFASGARGTFSSSWLKHGYKNHLSFEISGTQGTLTYDQERLNELRIYRPGAPGRDGFQRLLAGPAQPGYAAFCPAPGHQLGYNELKALEVQALILAVCGQGSRGPDFEEAWQIERLATAIRLAAHEQRWVALDDEGHHHHHH”, the “soluble on expression in E. coli” value was “soluble”.

Regarding “MKTIIFALNDHSPKYKQIYEKLKSLIERGDIQANEPLPSIRQLAESLNVSRNTTLMAYEQLAAEGYIRAEKRKGYFANEVEPLFIPKARISARQPAREAAAPVVVDFARRCR”, the “soluble on expression in E. coli” value is given as “not soluble”.

With “AVKILEIEDLFSSLKHIQHTLVDSQSQEDISLLLQLVQNKDFQNAFKIHNAITVHMNKAS”, the “soluble on expression in E. coli” value was “soluble”.

“MAETNKGIEEEVASAFVNHYYHLFDNDRSSLSSLYNPTSLLTFEGQTIYGVDNISNKLKQLPFDQCHHLISTVDSQPSSMAGGCGGILVFVSGSIQLHGEDHPLRFSQVYLLSICNRFEGFIWLKQS”: the “soluble on expression in E. coli” value is recorded as “not soluble”.

Regarding “MDNLNVFANEDNQVNDVKPPPPPPRVCARCDSDNTKFCYYNNYCEFQPRYFCKNCRRYWTHGGALRNIPIGGSSRAKRARVNQPSVARMVSVETQRGNNQPFSNVQENVHLVGSFGASSSSSVGAVGNLFGSLYDIHGGMVTNLHPTRTVRPNHRLAFHDGSFEQDYYDVGSDNLLVNQQVGGYGYHMNPVDQFKWNQSFNNTMNMNYNNDSTSGSSRGSDMNVNHDNKKIRYRNSVIMHPCHLEKDGP”, the “soluble on expression in E. coli” value is “not soluble”.

Take “MVALQIPSLAATVRQDFPILNQEINGHPLVYLDNAATSQKPRAVLEKLMHYYENDNANVHRGAHQLSVRATDAYEAVRNKVAKFINARSPREIVYTRNATEAINLVAYSWGMNNLKAGDEIITTVMEHHSNLVPWQMVAAKTGAVLKFVQLDEQESFDLEHFKTLLSEKTKLVTVVHISNTLGCVNPAEEIAQLAHQAGAKVLVDACQSAPHYPLDVQLIDCDWLVASGHKMCAPTGIGFLYGKEEILEAMPPFFGGGEMIAEVFFDHFTTGELPHKFEAGTPAIAEAIALGAAVDYLTDLGMENIHNYEVELTHYLWQGLGQIPQLRLYGPNPKHGDRAALASFNVAGLHASDVATMVDQDGIAIRSGHHCTQPLHRLFDASGSARASLYFYNTKEEIDLFLQSLQATIRFFSDDDFTV”: the “soluble on expression in E. coli” value is “soluble”.

Regarding “MSRDLLGLEGKIVMVTGAGRGFGRAIAHGYGRNGATVIAVDPDVELATGVASEVEALGATAIPIRGDMSVVLDVTSTFEKVEELFGLLDGIVHVTTAESKTPFVELLEGEWYDLMSQDVKSSLYVLQQGLRHLAGGGFVTIVLPPAARIEPHTVSVRKAVEGLIEGATRTFPGVRVNGVVPSRDPVGDPYDLPLVRAALGLGSMVSEGIRGVVLEVQLPEPPLEFEPYAALRELP”, the “soluble on expression in E. coli” value is “soluble”.
